Results as given in publication PMC3689661, “Plant Kinesin-Like Calmodulin Binding Protein Employs Its Regulatory Domain for Dimerization” (PLoS ONE, 2013).
Each block holds one molecule with its values, some of them ahead of it.

How the values were obtained:
[1] = molecular target: KCBP (construct not stated, in the KCBP-KIC complex) (Arabidopsis); experiment: SEC; Superdex-200 run of the KCBP-KIC complex that had been isolated on Ni-NTA agarose; in the presence of Ca2+
[2] = molecular target: His-tagged KIC (Arabidopsis) (UniProt Q9ZPX9); experiment: as above
[3] = molecular target: the molecule itself; experiment: SEC; Superdex 200 16/60; 50 mM Tris pH 7.5, 150 mM NaCl, 2 mM MgCl2, 0.1 mM ATP, 1 mM TCEP, and either 1 mM EGTA or 2 mM CaCl2; isolated proteins

stoichiometry N [1]: 2
Molecule: KCBP (construct not stated, in the KCBP-KIC complex) (domain or fragment)

stoichiometry N [2]: 2
Molecule: His-tagged KIC (from UniProt Q9ZPX9 1-135) (natural protein)

B1: Arabidopsis KIC (29–135) (domain or fragment, UniProt Q9ZPX9 29-135, looked up)
chain: MAEKMDVEEFVSELCKGFSLLADPERHLITAESLRRNSGILGIEGMSKEDAQGMVREGDLDGDGALNQTEFCVLMVRLSPEMMEDAETWLEKALTQELCNHNLSSMP
notes: KIC, Ca2+ ion sensor and regulator of KCBP, Arabidopsis, residues 29-135; The results speak of a deletion of the first 35 N-terminal residues; The tag's removal is told only in the general purification methods; source: E. coli BL21(DE3), purified (Ni-NTA, TEV-protease); not shown: His6-TRX, N-terminal, cleaved
stoichiometry N [3]: 2

B2: Arabidopsis KCBP (820–1225) (domain or fragment, UniProt Q9FHN8 820-1225, looked up)
chain: NSDMLLLQNNLKELEELREMKEDIDRKNEQTAAILKMQGAQLAELEILYKEEQVLRKRYYNTIEDMKGKIRVYCRIRPLNEKESSEREKQMLTTVDEFTVEHPWKDDKRKQHIYDRVFDMRASQDDIFEDTKYLVQSAVDGYNVCIFAYGQTGSGKTFTIYGHESNPGLTPRATKELFNILKRDSKRFSFSLKAYMVELYQDTLVDLLLPKSARRLKLEIKKDSKGMVFVENVTTIPISTLEELRMILERGSERRHVSGTNMNEESSRSHLILSVVIESIDLQTQSAARGKLSFVDLAGSERVKKSGSAGCQLKEAQSINKSLSALGDVIGALSSGNQHIPYRNHKLTMLMSDSLGGNAKTLMFVNVSPAESNLDETYNSLLYASRVRTIVNDPSKHISSKEMVRL
notes: with the predicted N-terminal dimerization motif, without the regulatory helix; pET32 Xa/Lic; the tag's removal is told only in the general purification methods; the motility assay held motors by an anti-His antibody; also called N-terminal dimer of KCBP without the regulatory helix; source: E. coli BL21(DE3), purified (Ni-NTA, TEV-protease); not shown: His6-Trx, N-terminal, cleaved
stoichiometry N [3]: 2

B3: full length Arabidopsis KIC (1–135) (natural protein, UniProt Q9ZPX9 1-135, looked up)
chain: MEPTEKSMLLETTSTTKMETKYEDMLPVMAEKMDVEEFVSELCKGFSLLADPERHLITAESLRRNSGILGIEGMSKEDAQGMVREGDLDGDGALNQTEFCVLMVRLSPEMMEDAETWLEKALTQELCNHNLSSMP
notes: KIC, Ca2+ ion sensor and regulator of KCBP, Arabidopsis, residues 1-135; The tag's removal is told only in the general purification methods; source: E. coli BL21(DE3), purified (Ni-NTA, TEV-protease); not shown: His6, N-terminal, cleaved
stoichiometry N [3]: 2

B4: Arabidopsis KCBP (884–1253) (domain or fragment, UniProt Q9FHN8 884-1253, looked up)
chain: DMKGKIRVYCRIRPLNEKESSEREKQMLTTVDEFTVEHPWKDDKRKQHIYDRVFDMRASQDDIFEDTKYLVQSAVDGYNVCIFAYGQTGSGKTFTIYGHESNPGLTPRATKELFNILKRDSKRFSFSLKAYMVELYQDTLVDLLLPKSARRLKLEIKKDSKGMVFVENVTTIPISTLEELRMILERGSERRHVSGTNMNEESSRSHLILSVVIESIDLQTQSAARGKLSFVDLAGSERVKKSGSAGCQLKEAQSINKSLSALGDVIGALSSGNQHIPYRNHKLTMLMSDSLGGNAKTLMFVNVSPAESNLDETYNSLLYASRVRTIVNDPSKHISSKEMVRLKKLVAYWKEQAGKKGEEEDLVDIEEDRT
notes: motor domain with intact regulatory helix and negative coil; pET28b construct encoding a tag-free protein; source: E. coli BL21(DE3), purified (Calmodulin-Sepharose 4B)
stoichiometry N [3]: 2
